Measurements from publication PMC4176424, “Thiolation-enhanced substrate recognition by D-alanyl carrier protein ligase DltA from Bacillus cereus” (F1000Research, 2014).

Columns and labels:
[1] = molecular target: BcDltA (D-alanyl carrier protein ligase DltA) (Bacillus cereus, UniProt Q81G39); experiment: biochemical
C[C@@H](N)C(=O)O = experiment: purified protein; conditions: 5 mM ATP, 5 mM CoA, 10 mM MgCl2, 0.1 M KCl, pH 7.2
Description: pyrophosphate release, pyrophosphatase-coupled malachite green assay on BcDltA (D-alanyl carrier protein ligase DltA)

Sequence of BcDltA (D-alanyl carrier protein ligase DltA) (Q81G39 whole entry): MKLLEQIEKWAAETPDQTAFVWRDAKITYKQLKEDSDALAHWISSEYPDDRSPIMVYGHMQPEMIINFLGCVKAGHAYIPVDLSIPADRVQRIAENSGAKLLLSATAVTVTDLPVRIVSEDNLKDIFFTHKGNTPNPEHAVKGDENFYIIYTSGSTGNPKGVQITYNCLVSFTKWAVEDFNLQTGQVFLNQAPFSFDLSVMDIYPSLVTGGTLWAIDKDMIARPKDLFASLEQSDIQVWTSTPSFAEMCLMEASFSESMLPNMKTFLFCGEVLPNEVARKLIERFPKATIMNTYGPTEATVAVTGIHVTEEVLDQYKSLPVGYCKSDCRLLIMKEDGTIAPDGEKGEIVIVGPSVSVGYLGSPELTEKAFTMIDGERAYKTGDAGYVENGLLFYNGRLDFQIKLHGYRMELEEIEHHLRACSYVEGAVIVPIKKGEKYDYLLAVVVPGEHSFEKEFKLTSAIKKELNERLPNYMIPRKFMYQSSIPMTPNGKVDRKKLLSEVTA

Compound	Kd [1] [µM]	Km (C[C@@H](N)C(=O)O)	kcat (C[C@@H](N)C(=O)O) [s⁻¹]	kcat/Km (C[C@@H](N)C(=O)O) [M⁻¹ s⁻¹]
Nc1ncnc2c1ncn2[C@@H]1O[C@H](COP(=O)(O)OP(=O)(O)OP(=O)(O)O)[C@@H](O)[C@H]1O [ATP]	430			
BcDltA (D-alanyl carrier protein ligase DltA) (Bacillus cereus ATCC 14579)		0.03 ± 0.01 × 10^-3 M	0.182 ± 0.00333	6050 ± 1670
